From publication PMC3474736, “Structural Characterization of the Enzymes Composing the Arginine Deiminase Pathway in Mycoplasma penetrans” (PLoS ONE, 2012)

Key:
Experiment in all cases: SEC; HiLoad Superdex 200 26/60 gel-filtration column, 50 mM NaCl, 20 mM Tris-HCl pH 8.0; oligomeric state read from the elution
[1] = biological target: carbamate kinase (CK) from Mycoplasma penetrans (Mycoplasma penetrans)
[2] = biological target: short-ADI (arginine deiminase from Mycoplasma penetrans, form initiating at Met43 and ending at Lys452) (Mycoplasma penetrans)
[3] = biological target: the molecule itself

carbamate kinase (CK) from Mycoplasma penetrans (enzyme)
stoichiometry N [1]: 2

short-ADI (arginine deiminase from Mycoplasma penetrans, form initiating at Met43 and ending at Lys452) (enzyme)
stoichiometry N [2]: 2

B1: ornithine carbamoyltransferase (OTC) from Mycoplasma penetrans (enzyme, UniProt Q8EVF5 1-342, looked up)
chain: MPVNLKGRSLDSLLNFTTEEVQHLIDLSIDLKKAKYQGLHINNRPLVGKNIAILFQKDSTRTRCAFEVAASDLGAGVTYIGPSGSNMGKKESIEDTAKVLGRFYDGIEFRGFAQSDVDALVKYSGVPVWNGLTDDEHPTQIIADFMTMKEKFGNLKNKKIVFIGDYKNNVGVSTMIGAAFNGMHVVMCGPDNYKNEIDKNVLAKCIELFKRNGGSLRFSTDKILAAQDADVIYTDVWVSLGEPFELFDKRIGELKNFQVDMNMIKAAKNDVIFLHCLPAFHDDHTSFSKEVATTLGAKYPIVAKGEMEVTDEVFQSLHNKAFDQAENRMHSIKAIILSTIGY
notes: ornithine carbamoyltransferase (OTC, EC 2.1.3.3), arcB gene product of Mycoplasma penetrans strain GTU-54; traced from Met1 to Tyr342; TGA codons for Trp129 and Trp237 changed to TGG (no change of the amino acids); Dodecamer of four catalytic homotrimers; also called MpOTC; ornitine transcarbamylase; copies: 12
stoichiometry N [3]: 12
